Laboratory results as given in US20210155689A1 (SHANGHAI PHARMAEXPLORER, published 2021).
Substitutions are numbered along the chain they refer to.

B1: 405B8H3 mouse-human chimeric antibody (antibody, V domains shown)
VH: QVQLQQSGAELVRPGASVTLSCKASGYTFTDYEMHWVKQTPVHGLEWIGATDPETGNSAYNQKFKGKAIMTADKSSSTAYMELRSLTSEDSAVYYCISTGWNDWGQGTSLTVSS
VL: DIKMTQSPSSMYASLGERVTITCKASQDINSYLSWFQQKPGKSPKTLIYRADRLLDGVPSRFSGSGSGQDYSLTISSLEYGDMGIYYCLQYDEFPYTFGGGTKLEIK
notes: also called mAb103-405B8H3
B2: 409D4E10 mouse-human chimeric antibody (antibody, V domains shown)
VH: B1 VH with Y27N, G56D, S58T, M70L, A72T, S98T, T99S
VL: B1 VL with D52N, G81E, D92N
notes: also called mAb112-409D4E10
B3: 409B11E12 mouse-human chimeric antibody (antibody, V domains shown)
VH: B1 VH with P41T, G56S, N57Y, M70L, S98A
VL: B1 VL with I2L, D52N, G81E
notes: also called mAb104-409B11E12

Target: T1, human LAG-3 on cells (HEK293-hLAG-3 stable cell line) (human, UniProt P18627 23-525)
T1 sequence: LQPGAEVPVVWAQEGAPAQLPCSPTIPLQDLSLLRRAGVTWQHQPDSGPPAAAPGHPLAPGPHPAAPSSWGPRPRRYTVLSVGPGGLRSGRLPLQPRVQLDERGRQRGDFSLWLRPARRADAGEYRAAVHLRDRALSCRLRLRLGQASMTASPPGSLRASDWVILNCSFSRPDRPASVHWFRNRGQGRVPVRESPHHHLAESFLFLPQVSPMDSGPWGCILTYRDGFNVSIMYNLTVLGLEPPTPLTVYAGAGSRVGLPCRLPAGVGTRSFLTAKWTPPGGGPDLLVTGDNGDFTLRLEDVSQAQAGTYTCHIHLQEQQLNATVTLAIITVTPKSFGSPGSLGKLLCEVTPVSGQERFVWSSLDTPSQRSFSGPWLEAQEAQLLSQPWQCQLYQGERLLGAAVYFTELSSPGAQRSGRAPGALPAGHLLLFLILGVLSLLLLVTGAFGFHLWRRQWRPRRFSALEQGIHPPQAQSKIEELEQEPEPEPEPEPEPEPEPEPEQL
Assay: FACS, HEK293-hLAG-3, antibody 200.000 nM
Excerpt: The pIRES plasmid with the monkey-derived full-length gene was transfected into the HEK293 cell line to construct a HEK293 stable cell line containing monkey LAG-3 (herein referred to as HEK293-cLAG-3 stable cell line). The HEK293-hLAG-3 stable cell line and HEK293-cLAG-3 stable cell line were expanded in a T-75 cell culture flask to a 90% confluence. The medium was aspirated, and the cells were washed with HBSS (Hanks' Balanced Salt Solution) 1-2 times, then treated with a enzyme-free cell dissociation fluid (Versene solution: Life technology) and the cells were collected. The cells were washed with HBSS buffer for 1-2 times. After counted, the cells were diluted with HBSS to 1-2×10⁶ cells per ml, added with 1% goat serum blocking solution, incubated on ice for 20-30 minutes, and then washed with HBSS for 2 times by centrifugation. The collected cells were suspended in the FACS buffer (HBSS+1% BSA) to 2×10⁶ cells/ml, added as 100 microliters per well to a 96-well FACS reaction plate, added with 100 microliters per well of the antibody sample to be tested, incubated on ice for 1-2 hours. The plate was washed twice with the FACS buffer by centrifugation, added with 100 microliters of fluorescent (Alexa 488)-labeled secondary antibodies per well, and incubated on ice for 0.5-1.0 hours. The plate was washed 2-3 times with FACS buffer by centrifugation, added with 100 μl fixative solution (4% Paraformaldehyde) per well to suspend the cells. 5-10 minutes later, it was washed 1-2 times with FACS buffer by centrifugation. The cells were suspended with 100 microliters of FACS buffer, FACS (FACSCalibur, BD) was used for detection and the results were analyzed.

Binder	Mean fluorescence intensity
B1	169
B2	151
B3	171
